One experiment concerns the target T1, human Angiopoietin-1 (human, UniProt Q15389 20-498, limits assumed).
T1 construct: Bought recombinant protein (R&D Systems 293-AN-025/CF) or supernatant of transfected 293F cells; also called Ang-1; recombinant Ang-1
T1 sequence: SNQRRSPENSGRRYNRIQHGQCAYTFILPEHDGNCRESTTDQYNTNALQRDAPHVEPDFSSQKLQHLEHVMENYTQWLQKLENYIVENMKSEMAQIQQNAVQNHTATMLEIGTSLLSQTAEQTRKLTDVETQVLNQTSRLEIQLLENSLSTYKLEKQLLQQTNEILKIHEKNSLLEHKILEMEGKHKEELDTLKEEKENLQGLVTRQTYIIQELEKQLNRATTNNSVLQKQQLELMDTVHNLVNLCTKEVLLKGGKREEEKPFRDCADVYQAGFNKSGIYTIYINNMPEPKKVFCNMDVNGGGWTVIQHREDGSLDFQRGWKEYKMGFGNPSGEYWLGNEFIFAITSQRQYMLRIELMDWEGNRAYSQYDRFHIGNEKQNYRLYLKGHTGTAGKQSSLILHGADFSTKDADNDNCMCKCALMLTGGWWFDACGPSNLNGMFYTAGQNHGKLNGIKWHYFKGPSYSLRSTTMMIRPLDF
Nature of the experiment: capture ELISA. As to the method:
The binding of the top 27 human monoclonal antibodies was detected with a HRP-conjugated goat anti-human antibody, followed by colorimetric horseradish peroxidase substrate (Enhanced K-Blue TMB substrate Neogen Corporation). The absorbance of each well of the ELISA plates was measured at 450 nm on a microplate autoreader.

Another experiment has as its target T2, human Angiopoietin-2 (human, UniProt O15123 19-496).
T2 construct: Mostly bought recombinant protein (R&D Systems 623-AM/CF, 623-AN; biotinylated BT623) or supernatant of transfected 293F cells; also called Ang-2; rhAng-2
T2 sequence: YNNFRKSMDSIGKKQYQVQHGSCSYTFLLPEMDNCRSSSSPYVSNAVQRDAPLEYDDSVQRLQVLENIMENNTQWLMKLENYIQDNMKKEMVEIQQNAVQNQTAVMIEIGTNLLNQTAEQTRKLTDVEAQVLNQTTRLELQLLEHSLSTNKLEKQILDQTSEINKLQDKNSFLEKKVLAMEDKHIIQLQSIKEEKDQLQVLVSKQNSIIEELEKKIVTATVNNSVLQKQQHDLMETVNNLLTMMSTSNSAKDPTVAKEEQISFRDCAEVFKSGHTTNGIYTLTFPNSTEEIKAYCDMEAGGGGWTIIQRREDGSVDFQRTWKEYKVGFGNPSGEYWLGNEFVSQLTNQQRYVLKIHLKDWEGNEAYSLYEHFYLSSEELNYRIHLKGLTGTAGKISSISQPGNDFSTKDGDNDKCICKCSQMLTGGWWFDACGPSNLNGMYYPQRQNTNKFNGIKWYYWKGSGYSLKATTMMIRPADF
Kind of experiment: inhibition of rhAng-2 binding to its receptor. Further: test concentration or dose not given here.

For experiment [1], the target named is T3, Human Ang-1/2 BsmI chimeric molecule (human).
T3 chain: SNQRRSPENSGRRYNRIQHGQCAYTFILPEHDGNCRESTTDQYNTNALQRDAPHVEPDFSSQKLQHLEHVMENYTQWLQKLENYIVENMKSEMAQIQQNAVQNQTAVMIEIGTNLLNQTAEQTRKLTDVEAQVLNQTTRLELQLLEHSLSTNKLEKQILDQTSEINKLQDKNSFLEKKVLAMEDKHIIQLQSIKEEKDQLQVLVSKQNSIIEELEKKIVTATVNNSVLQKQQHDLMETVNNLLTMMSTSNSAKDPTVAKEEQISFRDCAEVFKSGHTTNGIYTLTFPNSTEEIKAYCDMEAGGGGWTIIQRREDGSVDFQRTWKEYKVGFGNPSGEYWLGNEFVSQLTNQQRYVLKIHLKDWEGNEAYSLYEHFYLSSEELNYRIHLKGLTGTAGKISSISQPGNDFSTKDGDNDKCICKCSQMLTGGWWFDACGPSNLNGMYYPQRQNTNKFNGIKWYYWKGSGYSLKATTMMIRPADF
Kind of experiment: ELISA. (In general: An ELISA detects its analyte on a solid surface through an enzyme-linked reagent.)

In a further experiment the target is T4, human Ang-2443 (human, UniProt O15123 19-496).
T4 construct: Splice variant missing amino acids 96-148; supernatant of transfected 293F cells
T4 sequence: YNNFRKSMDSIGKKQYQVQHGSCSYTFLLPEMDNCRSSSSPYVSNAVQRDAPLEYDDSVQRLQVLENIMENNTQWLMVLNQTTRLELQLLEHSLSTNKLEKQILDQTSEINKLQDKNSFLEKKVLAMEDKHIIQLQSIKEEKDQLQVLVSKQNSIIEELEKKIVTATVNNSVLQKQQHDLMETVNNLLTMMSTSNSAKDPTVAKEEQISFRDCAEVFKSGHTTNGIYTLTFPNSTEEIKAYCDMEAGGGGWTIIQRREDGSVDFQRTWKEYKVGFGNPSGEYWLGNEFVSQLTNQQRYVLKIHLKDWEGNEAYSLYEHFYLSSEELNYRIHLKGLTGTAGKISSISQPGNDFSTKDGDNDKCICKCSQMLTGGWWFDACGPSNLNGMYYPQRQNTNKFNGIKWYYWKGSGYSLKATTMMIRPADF
Nature of the experiment: ELISA.

The target of a further experiment is T5, human Ang-2 H375Q (human, UniProt O15123 19-496).
T5 sequence: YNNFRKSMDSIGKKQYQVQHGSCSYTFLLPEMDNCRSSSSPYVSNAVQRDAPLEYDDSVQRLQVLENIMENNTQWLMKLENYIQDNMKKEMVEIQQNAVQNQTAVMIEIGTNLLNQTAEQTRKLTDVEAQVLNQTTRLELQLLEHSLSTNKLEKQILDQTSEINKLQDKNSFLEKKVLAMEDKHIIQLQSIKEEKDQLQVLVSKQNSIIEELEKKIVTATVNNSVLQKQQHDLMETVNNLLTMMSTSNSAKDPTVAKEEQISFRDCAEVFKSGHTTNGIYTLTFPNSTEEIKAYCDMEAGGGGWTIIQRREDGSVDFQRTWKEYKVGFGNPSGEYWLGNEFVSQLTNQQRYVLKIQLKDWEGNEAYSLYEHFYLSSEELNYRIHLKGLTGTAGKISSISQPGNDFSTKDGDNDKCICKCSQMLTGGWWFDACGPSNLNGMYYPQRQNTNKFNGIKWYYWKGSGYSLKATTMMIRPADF
Nature of the experiment: ELISA.

B1: mAb 5.103.1 (antibody, V domains shown)
VH: QVQLVQSGAEVKKPGASVKVSCKASGYTFTGYYLYWVPQAPGQGLEWMGWISPNSGGTNYAQKFQGRVTMTRDTSISTAYMELSRLRSDDTAVYYCARDQVIAVAGPFDYWAQGTLVTVSS
VL: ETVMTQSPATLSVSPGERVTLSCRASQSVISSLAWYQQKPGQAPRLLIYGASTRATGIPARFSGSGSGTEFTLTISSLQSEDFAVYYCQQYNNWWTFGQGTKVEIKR
notes: Human hybridoma IgG (XenoMouse); also called 5.103.3; x5.103
For B1, the binding result in the experiment with human Angiopoietin-1 is reported as “no binding”. For the same molecule, the “OD650 in inhibition assay” value with human Angiopoietin-2 is 0.101 OD650. The “% of binding to human Ang-2” value (in experiment [1]; in the experiment with human Ang-2443; with human Ang-2 H375Q) was 100% in each case.

B2: mAb 5.13.1 (antibody, V domains shown)
VH: EVQLVESGGGLVQPGGSLRLSCAASGFTFSSYWMSWVRQAPGKGLEWVANIKQDGSEKYYVDSVKGRFTISRDNAKNSLYLQMNSLRAEDTAVYYCARDPGIAVAGPFDYWGQGTLVTVSS
VL: EIVMTQSPATLSVSPGERATLSCRASQSVSSNLAWYQQKPGQAPRLLIYGASTRATGIPARFSGSGSGTEFTLTISSLQSEDFAVYYCQQYNHWWTFGQGTKVEIKR
notes: Human hybridoma IgG (XenoMouse); also called x5.13
As for B2, the binding result in the experiment with human Angiopoietin-1 is listed as “no binding”. Besides, the “OD650 in inhibition assay” value in the experiment with human Angiopoietin-2 was 0.0744 OD650. The “% of binding to human Ang-2” value (in experiment [1]; with human Ang-2443; in the experiment with human Ang-2 H375Q) was 100% each time.

B3: mAb 5.108.1 (antibody, V domains shown)
VH: QVQLVESGGGVVQPGRSLRLSCAASGFTFSSYGMHWVRQAPGKGLEWVAVIWYDGSNKYYADSVKGRFTISRDNSKNTLYLQMNSLRAEDTAMYYCARELALWGQGTLVTVSS
VL: EIVMTQSPATLSVSPGERATLSCRASQSVSSYLAWYQQKPGQAPRLLIYGAFTRATGIPARFRGSGSGPEFTLTISSLQSEDFAVYYCQQYSHWWTFGQGTKVEIKR
notes: Human hybridoma IgG (XenoMouse); also called x5.108
Regarding B3, the binding result with human Angiopoietin-1 is given as “no binding”. In addition, the “OD650 in inhibition assay” value with human Angiopoietin-2 came to 0.0688 OD650. For the same molecule, the “% of binding to human Ang-2” value (in experiment [1]; with human Ang-2443; with human Ang-2 H375Q) was 100% throughout.

B4: mAb 5.39.1 (antibody, V domains shown)
VH: QVQLVQSGAEVTKPGASVKVSCKASGYTFTAYHMYWVRQAPGQGLEWMGWINPNSGGTNYAQKFQGRVTMTRDTSISTAYMELSRLRSDDSPVYYCARDQGIAAAGPFDYWGQGTLVTVSS
VL: EIVMTQSPATLSVSPGDRATLSCRASQSVSSNFAWYQQKPGQAPRLLIYGSSTRATGIPARFSGSGSGTEFTLTISSLQSEDFAVYYCQQYHYWWTFGQGTKVEFKR
notes: Human hybridoma IgG (XenoMouse); also called x5.39
Regarding B4, the binding result with human Angiopoietin-1 was “no binding”. Moreover, in the experiment with human Angiopoietin-2, the “OD650 in inhibition assay” value turned out to be 0.0519 OD650. Moreover, the “% of binding to human Ang-2” value (in experiment [1]; in the experiment with human Ang-2443; with human Ang-2 H375Q) was 100% in each case.

B5: mAb 5.40.2 (antibody, V domains shown)
VH: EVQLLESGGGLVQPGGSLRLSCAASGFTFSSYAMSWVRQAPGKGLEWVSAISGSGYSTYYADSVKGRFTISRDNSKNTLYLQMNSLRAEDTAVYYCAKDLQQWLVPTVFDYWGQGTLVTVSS
VL: EIVMTQSPATLSVSPGERATLSCRASQSVSSNLVWYQQKPGQAPRLLIYDSSTRATGIPVRFSGSGSGTEFTLTISSLQSEDFAVYYCQQYNHWWTFGQGTKVEIKR
notes: Human hybridoma IgG (XenoMouse); also called x5.40
Turning to B5, the binding result with human Angiopoietin-1 is given as “no binding”. Moreover, the “OD650 in inhibition assay” value with human Angiopoietin-2 was 0.0691 OD650. For the same molecule, the “% of binding to human Ang-2” value (in experiment [1]; in the experiment with human Ang-2443; in the experiment with human Ang-2 H375Q) was 100% in each case.

B6: mAb 5.62.1 (antibody, V domains shown)
VH: EVQLVESGGGLVQPGGSLRLSCAASGFTFSSYWMSWVRQAPGKGLEWVANIKQDGSEKYYVDSVKGRFTISRDNAKNSLYLQMNSLRAEDTAVYYCARDPGIAVAGPFDYWGQGTLVTVSS
VL: EIVMTQSPATLSVSPGERATLSCRASQSVSSNLAWYQQKPGQAPRLLIYGAFTRATGIPARFSGSGSGTEFTLTISSLQSEDFAVYYCQQYNHWWTFGQGTKVGIKR
notes: Human hybridoma IgG (XenoMouse); also called x5.62
As to B6, in the experiment with human Angiopoietin-1, the binding result is listed as “no binding”. Further, the “OD650 in inhibition assay” value in the experiment with human Angiopoietin-2 turned out to be 0.065 OD650. The “% of binding to human Ang-2” value (in experiment [1]; in the experiment with human Ang-2443; with human Ang-2 H375Q) was 100% throughout.

B7: mAb 5.28.1 (antibody, V domains shown)
VH: EVQLVESGGIVVQPGGSLRLSCAASGFTFDDYTMHWVRQTPGKGLEWVSLISWDGGSTYYADSVKGRFTISRDNSKNSLYLQMNSLRTEDTALYYCAKDIDIAVAGTGFDHWGQGTLVTVSS
VL: EIVMTQSPATLSVSPGERATLSCRASQSVTSNLAWYQQKPGQAPRLLIYGALIRATGIPARFSGSGSGTEFTLTISSLQSEDFAVYYCQQYNNWPFTFGPGTKVDIKR
notes: Human hybridoma IgG (XenoMouse); also called x5.28
For the molecule B7, in the experiment with human Angiopoietin-1, the binding result is on record as “no binding”. For the same molecule, the “OD650 in inhibition assay” value with human Angiopoietin-2 amounted to 0.0821 OD650. The “% of binding to human Ang-2” value (in experiment [1]; with human Ang-2443; in the experiment with human Ang-2 H375Q) was 100% in each case.

B8: mAb 5.35.1 (antibody, V domains shown)
VH: EVQLVESGGGVVRPGGSLRLSCTTSGFTFDDYGMSWVRQAPGKGLEWVSGINWNGGSTVYADSVKGRFTISRDSAKNSLYLQMNSLRAEDTALYHCARNKQWLWYFDLWGRGTLVTVSS
VL: EIVMTQSPATLSVSPGERATLSCRASQSVSSNLAWYQQKPGQAPRLLIYGASTRATGIPARFSGSGSGTEFTLTISSLQSEDFAVYYCEQYNNWPLTFGGGTKVEIKR
notes: Human hybridoma IgG (XenoMouse); also called x5.35
In the case of B8, in the experiment with human Angiopoietin-1, the binding result is listed as “no binding”. Moreover, the “OD650 in inhibition assay” value with human Angiopoietin-2 turned out to be 0.0663 OD650. The “% of binding to human Ang-2” value (in experiment [1]; with human Ang-2443; with human Ang-2 H375Q) was 100% throughout.

B9: mAb 5.56.1 (antibody, V domains shown)
VH: QVQLVESGGGVVQPGRSLRLSCAASGFTFSSYGMHWVRQAPGKGLEWVAVIWYDGSNKYYADSVKGRFTISRDNSKNTLYLQMNSLRAEDTAVYYCAREDNWNFYFDYWGQGTLVTVSS
VL: DIQMTQSPSSLSASVGDRVTITCRASQGISYYLAWYQQKPGKVPKLLIYAASTLQSGVPSRFSGSGSGTDFTLTISSLQPEDVATYYCQKYNSAPFTFGPGTKVDIKR
notes: Human hybridoma IgG (XenoMouse); also called x5.56
For B9, the binding result in the experiment with human Angiopoietin-1 is recorded as “no binding”. Besides, in the experiment with human Angiopoietin-2, the “OD650 in inhibition assay” value stood at 0.0863 OD650. Also, the “% of binding to human Ang-2” value (in experiment [1]; with human Ang-2443; with human Ang-2 H375Q) was 100% throughout.
